Assay results reported in US20170052184A1 (published 2017).
Ends that are not written are not given here.

How the values were obtained:
[1] = target: T1, WT1STHV biotin labeled HCV core peptide (hepatitis C virus, biotin labeled); experiment: EIA; Ab 1000 ng/mL captured on anti-mouse Fc; bt-peptide 500 ng/mL
T1 peptide: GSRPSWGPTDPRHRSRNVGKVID

[2] = target: T2, Mut1T110N biotin labeled HCV core peptide (hepatitis C virus, biotin labeled); experiment: as above
T2 peptide: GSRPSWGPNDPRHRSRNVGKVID

[3] = target: T3, Mut6T110S biotin labeled HCV core peptide (hepatitis C virus); experiment: as above
[4] = target: T4, C113WT biotin labeled HCV core peptide (hepatitis C virus, also: biotin labeled, position not given here); experiment: as above
T4 peptide: RGSRPSWGPTD

[5] = target: T5, C113T109N biotin labeled HCV core peptide (hepatitis C virus, also: biotin labeled, position not given here); experiment: as above
T5 peptide: RGSRPSWGPND

[6] = target: T1, WT1STHV biotin labeled HCV core peptide; experiment: EIA; Ab 0.977 ng/mL captured on anti-mouse Fc; bt-peptide 500 ng/mL
[7] = target: T2, Mut1T110N biotin labeled HCV core …; experiment: as above
[8] = target: T3, Mut6T110S biotin labeled HCV core …; experiment: as above
[9] = target: T4, C113WT biotin labeled HCV core peptide; experiment: as above
[10] = target: T5, C113T109N biotin labeled HCV core …; experiment: as above
[11] = target: T1, WT1STHV biotin labeled HCV core peptide; experiment: EIA; Ab 1.953 ng/mL captured on anti-mouse Fc; bt-peptide 500 ng/mL
[12] = target: T2, Mut1T110N biotin labeled HCV core …; experiment: as above
[13] = target: T3, Mut6T110S biotin labeled HCV core …; experiment: as above
[14] = target: T4, C113WT biotin labeled HCV core peptide; experiment: as above
[15] = target: T5, C113T109N biotin labeled HCV core …; experiment: as above
[16] = target: T1, WT1STHV biotin labeled HCV core peptide; experiment: EIA; Ab 31.25 ng/mL captured on anti-mouse Fc; bt-peptide 500 ng/mL
[17] = target: T3, Mut6T110S biotin labeled HCV core …; experiment: as above
[18] = target: T4, C113WT biotin labeled HCV core peptide; experiment: as above
[19] = target: T5, C113T109N biotin labeled HCV core …; experiment: as above
[20] = target: T1, WT1STHV biotin labeled HCV core peptide; experiment: EIA; Ab 7.813 ng/mL captured on anti-mouse Fc; bt-peptide 500 ng/mL
[21] = target: T2, Mut1T110N biotin labeled HCV core …; experiment: as above
[22] = target: T3, Mut6T110S biotin labeled HCV core …; experiment: as above
[23] = target: T4, C113WT biotin labeled HCV core peptide; experiment: as above
[24] = target: T5, C113T109N biotin labeled HCV core …; experiment: as above
[25] = target: T3, Mut6T110S biotin labeled HCV core …; experiment: EIA; Ab 15.625 ng/mL captured on anti-mouse Fc; bt-peptide 500 ng/mL
[26] = target: T4, C113WT biotin labeled HCV core peptide; experiment: as above
[27] = target: T5, C113T109N biotin labeled HCV core …; experiment: as above

B1: HCV Neo4 monoclonal antibody (antibody, V domains shown)
VH: QIQLKESGPAVIKPSQSLSLTCIVSGFSITSSVYCWQWIRQPPGKGLEWMGRICYDGSVDYSPSITSRGTISRDTSLNKVFFQLSSVTNEDTAMYYCSRENHIDYYDTTYPSFDVWGAGTTVTVSS
VL: DIVLTQSPASLIVSLGQRATISCRASKSVNEYGYTYMHWYQQKPGLPPKLLIYLASNLDSGVPARFSGSGSGTDFTLNIHPVEEEDAATYYCQHSRELPYTFGGGTKLEIKR
B1 was tested, and the “signal at 492 nm” value [1] was 2 OD 492 nm, the “signal at 492 nm” value [2] was 0.0678 OD 492 nm and the “signal at 492 nm” value [3] was 1.17 OD 492 nm. For the same binder, the “signal at 492 nm” value [4] was 0.222 OD 492 nm, the “signal at 492 nm” value [5] was 0.0591 OD 492 nm and the “signal at 492 nm” value [6] was 0.22 OD 492 nm. The “signal at 492 nm” value [7] was 0.0619 OD 492 nm, the “signal at 492 nm” value [8] was 0.0644 OD 492 nm and the “signal at 492 nm” value [9] was 0.0584 OD 492 nm. The “signal at 492 nm” value [10] was 0.0784 OD 492 nm, the “signal at 492 nm” value [11] was 0.409 OD 492 nm and the “signal at 492 nm” value [12] was 0.0728 OD 492 nm. For the same binder, the “signal at 492 nm” value [13] was 0.0717 OD 492 nm, the “signal at 492 nm” value [14] was 0.0765 OD 492 nm and the “signal at 492 nm” value [15] was 0.0853 OD 492 nm. The “signal at 492 nm” value [16] was 1.67 OD 492 nm, the “signal at 492 nm” value [17] was 0.48 OD 492 nm and the “signal at 492 nm” value [18] was 0.0622 OD 492 nm. The “signal at 492 nm” value [19] was 0.0815 OD 492 nm, the “signal at 492 nm” value [20] was 1.04 OD 492 nm and the “signal at 492 nm” value [21] was 0.0729 OD 492 nm. For the same binder, the “signal at 492 nm” value [22] was 0.132 OD 492 nm, the “signal at 492 nm” value [23] was 0.0731 OD 492 nm and the “signal at 492 nm” value [24] was 0.0751 OD 492 nm. For the same binder, the “signal at 492 nm” value [25] was 0.25 OD 492 nm, the “signal at 492 nm” value [26] was 0.0697 OD 492 nm and the “signal at 492 nm” value [27] was 0.0736 OD 492 nm.
